First the molecules themselves.
B1: GpH7-A5/GpH7-B3 variant K334_09D/GpL16-k0 (antibody, human IgG1, kappa)
heavy 1: not shown
heavy 2: not shown
light: DIVMTQSPLSLPVTPGEPASISCQASESLVHSNRNTYLHWYLQKPGQSPQLLIYKVSNRFSGVPDRFSGSGSGTDFTLKISRVEAEDVGVYYCSQNTHVPPTFGQGTKVEIERTVAAPSVFIFPPSDEQLKSGTASVVCLLNNFYPREAKVQWKVDNALQSGNSQESVTEQDSKDSTYSLSSTLTLSKADYEKHKVYACEVTHQGLSSPVTKSFNRGEC
notes: heterodimerized antibody, mutation in one H chain only; also called K334_09D He Ab
B2: GpH7-A5/GpH7-B3 variant K334_16H/GpL16-k0 (antibody, human IgG1, kappa)
heavy 1: not shown
heavy 2: not shown
light: DIVMTQSPLSLPVTPGEPASISCQASESLVHSNRNTYLHWYLQKPGQSPQLLIYKVSNRFSGVPDRFSGSGSGTDFTLKISRVEAEDVGVYYCSQNTHVPPTFGQGTKVEIERTVAAPSVFIFPPSDEQLKSGTASVVCLLNNFYPREAKVQWKVDNALQSGNSQESVTEQDSKDSTYSLSSTLTLSKADYEKHKVYACEVTHQGLSSPVTKSFNRGEC
notes: heterodimerized antibody, mutation in one H chain only; also called K334_16H He Ab
B3: GpH7-A5/GpH7-B3 variant P271_01G/GpL16-k0 (antibody, human IgG1, kappa)
heavy 1: not shown
heavy 2: not shown
light: DIVMTQSPLSLPVTPGEPASISCQASESLVHSNRNTYLHWYLQKPGQSPQLLIYKVSNRFSGVPDRFSGSGSGTDFTLKISRVEAEDVGVYYCSQNTHVPPTFGQGTKVEIERTVAAPSVFIFPPSDEQLKSGTASVVCLLNNFYPREAKVQWKVDNALQSGNSQESVTEQDSKDSTYSLSSTLTLSKADYEKHKVYACEVTHQGLSSPVTKSFNRGEC
notes: heterodimerized antibody, mutation in one H chain only; also called P271_01G He Ab
B4: GpH7-A5/GpH7-B3 variant K334_15Y/GpL16-k0 (antibody, human IgG1, kappa)
heavy 1: not shown
heavy 2: not shown
light: DIVMTQSPLSLPVTPGEPASISCQASESLVHSNRNTYLHWYLQKPGQSPQLLIYKVSNRFSGVPDRFSGSGSGTDFTLKISRVEAEDVGVYYCSQNTHVPPTFGQGTKVEIERTVAAPSVFIFPPSDEQLKSGTASVVCLLNNFYPREAKVQWKVDNALQSGNSQESVTEQDSKDSTYSLSSTLTLSKADYEKHKVYACEVTHQGLSSPVTKSFNRGEC
notes: heterodimerized antibody, mutation in one H chain only; also called K334_15Y He Ab
B5: GpH7-A5/GpH7-B3 variant S267_14T/GpL16-k0 (antibody, human IgG1, kappa)
heavy 1: not shown
heavy 2: not shown
light: DIVMTQSPLSLPVTPGEPASISCQASESLVHSNRNTYLHWYLQKPGQSPQLLIYKVSNRFSGVPDRFSGSGSGTDFTLKISRVEAEDVGVYYCSQNTHVPPTFGQGTKVEIERTVAAPSVFIFPPSDEQLKSGTASVVCLLNNFYPREAKVQWKVDNALQSGNSQESVTEQDSKDSTYSLSSTLTLSKADYEKHKVYACEVTHQGLSSPVTKSFNRGEC
notes: heterodimerized antibody, mutation in one H chain only; also called S267_14T He Ab
B6: GpH7-A5/GpH7-B3 variant P271_08L/GpL16-k0 (antibody, human IgG1, kappa)
heavy 1: not shown
heavy 2: not shown
light: DIVMTQSPLSLPVTPGEPASISCQASESLVHSNRNTYLHWYLQKPGQSPQLLIYKVSNRFSGVPDRFSGSGSGTDFTLKISRVEAEDVGVYYCSQNTHVPPTFGQGTKVEIERTVAAPSVFIFPPSDEQLKSGTASVVCLLNNFYPREAKVQWKVDNALQSGNSQESVTEQDSKDSTYSLSSTLTLSKADYEKHKVYACEVTHQGLSSPVTKSFNRGEC
notes: heterodimerized antibody, mutation in one H chain only; also called P271_08L He Ab
B7: GpH7-A5/GpH7-B3 variant Q295_10E/GpL16-k0 (antibody, human IgG1, kappa)
heavy 1: not shown
heavy 2: not shown
light: DIVMTQSPLSLPVTPGEPASISCQASESLVHSNRNTYLHWYLQKPGQSPQLLIYKVSNRFSGVPDRFSGSGSGTDFTLKISRVEAEDVGVYYCSQNTHVPPTFGQGTKVEIERTVAAPSVFIFPPSDEQLKSGTASVVCLLNNFYPREAKVQWKVDNALQSGNSQESVTEQDSKDSTYSLSSTLTLSKADYEKHKVYACEVTHQGLSSPVTKSFNRGEC
notes: heterodimerized antibody, mutation in one H chain only; also called Q295_10E He Ab
B8: GpH7-A5/GpH7-B3 variant K334_14T/GpL16-k0 (antibody, human IgG1, kappa)
heavy 1: not shown
heavy 2: not shown
light: DIVMTQSPLSLPVTPGEPASISCQASESLVHSNRNTYLHWYLQKPGQSPQLLIYKVSNRFSGVPDRFSGSGSGTDFTLKISRVEAEDVGVYYCSQNTHVPPTFGQGTKVEIERTVAAPSVFIFPPSDEQLKSGTASVVCLLNNFYPREAKVQWKVDNALQSGNSQESVTEQDSKDSTYSLSSTLTLSKADYEKHKVYACEVTHQGLSSPVTKSFNRGEC
notes: heterodimerized antibody, mutation in one H chain only; also called K334_14T He Ab
B9: GpH7-A5/GpH7-B3 variant S267_19Q/GpL16-k0 (antibody, human IgG1, kappa)
heavy 1: not shown
heavy 2: not shown
light: DIVMTQSPLSLPVTPGEPASISCQASESLVHSNRNTYLHWYLQKPGQSPQLLIYKVSNRFSGVPDRFSGSGSGTDFTLKISRVEAEDVGVYYCSQNTHVPPTFGQGTKVEIERTVAAPSVFIFPPSDEQLKSGTASVVCLLNNFYPREAKVQWKVDNALQSGNSQESVTEQDSKDSTYSLSSTLTLSKADYEKHKVYACEVTHQGLSSPVTKSFNRGEC
notes: heterodimerized antibody, mutation in one H chain only; also called S267_19Q He Ab
B10: GpH7-A5/GpH7-B3 variant P271_18N/GpL16-k0 (antibody, human IgG1, kappa)
heavy 1: not shown
heavy 2: not shown
light: DIVMTQSPLSLPVTPGEPASISCQASESLVHSNRNTYLHWYLQKPGQSPQLLIYKVSNRFSGVPDRFSGSGSGTDFTLKISRVEAEDVGVYYCSQNTHVPPTFGQGTKVEIERTVAAPSVFIFPPSDEQLKSGTASVVCLLNNFYPREAKVQWKVDNALQSGNSQESVTEQDSKDSTYSLSSTLTLSKADYEKHKVYACEVTHQGLSSPVTKSFNRGEC
notes: heterodimerized antibody, mutation in one H chain only; also called P271_18N He Ab
B11: GpH7-A5/GpH7-B3 variant S267_18N/GpL16-k0 (antibody, human IgG1, kappa)
heavy 1: not shown
heavy 2: not shown
light: DIVMTQSPLSLPVTPGEPASISCQASESLVHSNRNTYLHWYLQKPGQSPQLLIYKVSNRFSGVPDRFSGSGSGTDFTLKISRVEAEDVGVYYCSQNTHVPPTFGQGTKVEIERTVAAPSVFIFPPSDEQLKSGTASVVCLLNNFYPREAKVQWKVDNALQSGNSQESVTEQDSKDSTYSLSSTLTLSKADYEKHKVYACEVTHQGLSSPVTKSFNRGEC
notes: heterodimerized antibody, mutation in one H chain only; also called S267_18N He Ab

T1 sequence (P12314 16-292): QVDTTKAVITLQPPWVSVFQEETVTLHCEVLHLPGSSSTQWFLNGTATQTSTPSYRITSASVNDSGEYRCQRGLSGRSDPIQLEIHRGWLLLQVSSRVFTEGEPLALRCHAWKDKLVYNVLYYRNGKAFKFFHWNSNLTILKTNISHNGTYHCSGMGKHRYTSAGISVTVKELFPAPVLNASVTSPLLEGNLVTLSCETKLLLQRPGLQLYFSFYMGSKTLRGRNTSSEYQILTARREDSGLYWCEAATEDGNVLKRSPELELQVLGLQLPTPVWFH

This assay has as its target T1, FcγRIa extracellular domain with C-terminal His tag (human, UniProt P12314 16-292).
T1 construct: extracellular domain; soluble analyte in Biacore; also called FcgRI; CD64
Put plainly: SPR (Biacore), relative FcγRIa binding, GpH7-A5/GpH7-B3/GpL16-k0 (HeCon Ab) = 100. Background: SPR reads the build-up and loss of mass on a sensor chip optically.
For the molecule B1, the He/Con_1a is 106 % of control. The result for B2 reads 105 % of control; that for B3, 105 % of control. Take B4: the He/Con_1a is 105 % of control. Next, B5: 102 % of control. B6: the He/Con_1a is 102 % of control.

On to B7, for which the He/Con_1a is 103 % of control. Next, B8: 105 % of control; B9: 102 % of control.

Take B10: the He/Con_1a was 103 % of control.

As to B11, the He/Con_1a was 102 % of control.

For the origin of these results see patent publication US20180155451A1 (published 2018).
